{
  "source": "patent US6818617B1",
  "about": "(Temple University- Of The Commonwealth System of Higher …, priority 1997, dated 2004)",
  "molecules": {"B1": {"name": "EC-3 (protein, listed as Echis carinatus)", "chain 1": "NSVHPCCDPVKCEPREGEHCISGPCCRNCYFLRAGTVCKRAVGDDVDDYCSGITPDCPRNRYKGKED", "chain 2": "NSVHPCCDPVKCEPREGEHCISGPCCRNCKFLNAGTICKRAMLDGLNDYCTGISTDCPRNRYKGKED"}},
  "key": {"[1]": {"system": "lymphocyte infiltration of pancreatic Langerhans islets", "experiment": "Lymphocyte infiltration of Langerhans islets in Non Obese Diabetic (NOD) mice", "assay_type": "in vivo, mouse", "experimental": "Female NOD mice from […] of age were purchased from Jackson Laboratory (Bar Harbor, Me.).\nAfter nine weeks of treatment the animals were sacrificed by exposure to CO2. The pancreas was removed, frozen, and stored at −70° C. until the histological analysis. For the histological analysis, five μm sections of frozen tissue were fixed with acetone. For detection of infiltrating lymphocytes, the sections were stained with hematoxylin/eosin, and observed by light microscopy."}, "α4β1 and α4β7 integrins": {"system": "α4β1 and α4β7 integrins", "experiment": "Panel of α4 integrin cell adhesion assays", "assay_type": "cell-based", "conditions": "range over assays", "experimental": "(§1) Adhesion of cultured cells labeled with 5-chloromethylfluorescein diacetate (CMFDA) was performed as described earlier (Marcinkiewicz et al., Blood 90:1565-1575 (1997)). […] Wells were blocked by 1% BSA in HBSS buffer. Cells were labeled with fluorescein by incubation with 12.5 AM CMFDA in HBSS buffer containing 1% BSA at 37° C. by 15 min. Unbound label was removed by washing with the same buffer. Labeled cells (1×10^5 per sample) were added to the well in the presence or absence of inhibitors and incubated at 37° C. for 30 min. Unbound cells were removed by aspiration, the wells were washed and bound cells were lysed by adding 0.5% Triton X-100. In parallel the standard curve was prepared in the same plate from known concentrations of labelled cells. The plate was read using a Cytofluor 2350 fluorescence plate reader (Millipore, Bedford, Mass.) at 485 nm EX(excitation) filter and 530 nm (emmision) filter.\n(§2) The effect of each peptide on cell adhesion was determined as described above. […] Cells that attached to the plates were lysed with detergent, and fluorescence intensity was measured. Percent inhibition was measured at each concentration and IC50 was determined."}, "αvβ3": {"target": "T1, αvβ3 (Homo sapiens, UniProt P05106+P06756)", "T1 construct": "expressed in transfected cells; host or cells: CHO (VNRC3 cells), gift of Dr. M. Ginsberg", "T1 sequence (P06756 31-889 limits assumed)": "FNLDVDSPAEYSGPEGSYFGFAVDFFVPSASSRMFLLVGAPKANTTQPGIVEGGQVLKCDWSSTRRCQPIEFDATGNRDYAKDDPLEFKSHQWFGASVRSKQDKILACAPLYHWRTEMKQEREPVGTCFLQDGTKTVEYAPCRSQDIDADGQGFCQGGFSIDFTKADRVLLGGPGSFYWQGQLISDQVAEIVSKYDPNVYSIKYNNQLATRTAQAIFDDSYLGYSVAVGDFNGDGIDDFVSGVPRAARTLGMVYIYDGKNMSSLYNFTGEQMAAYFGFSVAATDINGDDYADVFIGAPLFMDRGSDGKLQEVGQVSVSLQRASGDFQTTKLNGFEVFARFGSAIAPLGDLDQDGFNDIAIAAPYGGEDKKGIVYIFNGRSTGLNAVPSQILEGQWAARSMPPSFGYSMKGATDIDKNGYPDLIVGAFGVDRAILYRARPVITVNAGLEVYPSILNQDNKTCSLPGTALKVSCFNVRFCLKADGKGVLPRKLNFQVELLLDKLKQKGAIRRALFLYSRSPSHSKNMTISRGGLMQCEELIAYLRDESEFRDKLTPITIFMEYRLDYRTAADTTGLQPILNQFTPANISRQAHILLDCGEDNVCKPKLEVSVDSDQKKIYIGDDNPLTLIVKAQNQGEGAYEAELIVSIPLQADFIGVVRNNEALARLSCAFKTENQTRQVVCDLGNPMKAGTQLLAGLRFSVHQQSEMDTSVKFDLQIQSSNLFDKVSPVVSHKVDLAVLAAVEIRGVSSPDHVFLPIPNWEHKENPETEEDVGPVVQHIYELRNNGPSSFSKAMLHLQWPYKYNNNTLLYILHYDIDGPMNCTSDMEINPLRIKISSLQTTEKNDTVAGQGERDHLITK", "T1 sequence (P06756 891-1048 partner limits assumed)": "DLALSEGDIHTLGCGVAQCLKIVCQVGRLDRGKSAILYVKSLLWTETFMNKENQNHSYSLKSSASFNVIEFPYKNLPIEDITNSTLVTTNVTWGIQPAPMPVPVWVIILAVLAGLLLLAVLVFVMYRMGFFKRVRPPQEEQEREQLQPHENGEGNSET", "T1 sequence (P05106 27-788)": "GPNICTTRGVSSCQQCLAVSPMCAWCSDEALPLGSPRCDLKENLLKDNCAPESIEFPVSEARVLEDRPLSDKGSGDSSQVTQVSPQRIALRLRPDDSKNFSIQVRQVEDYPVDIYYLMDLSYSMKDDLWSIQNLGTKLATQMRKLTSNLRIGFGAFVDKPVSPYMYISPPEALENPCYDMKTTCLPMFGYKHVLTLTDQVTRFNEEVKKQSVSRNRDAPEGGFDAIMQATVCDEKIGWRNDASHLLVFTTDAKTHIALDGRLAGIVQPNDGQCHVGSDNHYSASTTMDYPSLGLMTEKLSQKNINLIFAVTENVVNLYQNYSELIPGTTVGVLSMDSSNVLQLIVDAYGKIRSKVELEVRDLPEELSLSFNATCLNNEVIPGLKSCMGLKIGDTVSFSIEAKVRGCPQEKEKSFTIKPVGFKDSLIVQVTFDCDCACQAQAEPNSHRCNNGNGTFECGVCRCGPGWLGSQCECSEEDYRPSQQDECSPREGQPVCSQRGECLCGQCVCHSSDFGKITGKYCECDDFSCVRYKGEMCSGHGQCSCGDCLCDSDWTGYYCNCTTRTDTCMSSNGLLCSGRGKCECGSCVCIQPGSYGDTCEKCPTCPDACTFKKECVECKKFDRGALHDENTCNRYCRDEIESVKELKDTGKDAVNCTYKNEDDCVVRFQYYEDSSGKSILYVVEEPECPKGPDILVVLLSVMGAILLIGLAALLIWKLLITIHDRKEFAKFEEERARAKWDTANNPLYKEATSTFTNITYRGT", "experiment": "VNRC3 (CHOαvβ3+) cell adhesion to immobilized vitronectin", "assay_type": "cell-based", "experimental": "as §1, §2"}, "α4β1 [2]": {"target": "T2, α4β1 (Homo sapiens, UniProt P05556+P13612)", "experiment": "Jurkat cell adhesion to CS-1", "assay_type": "cell-based", "design": "host or cells: Jurkat", "conditions": "Jurkat cells, ligand CS-1", "experimental": "as §1, §2"}, "αIIbβ3 [3]": {"target": "T3, αIIbβ3 (Homo sapiens, UniProt P05106+P08514)", "experiment": "ADP-induced platelet aggregation in platelet rich plasma (ADP PA)", "assay_type": "cell-based", "design": "endogenous in cells; host or cells: platelets in platelet rich plasma", "conditions": "Platelets, αIIbβ3, ligand Fg, 30 μM ADP", "experimental": "Blood from a healthy donor was collected into a syringe containing sodium citrate as an anticoagulant. The anticoagulated blood was centrifuged at 400 g for 17 minutes, and platelet rich plasma (PRP) was removed by aspiration."}, "α4β7 [4]": {"target": "T4, α4β7 (Homo sapiens, UniProt P13612+P26010)", "experiment": "RPMI 8866 cell adhesion to MadCAM-1", "assay_type": "cell-based", "design": "endogenous in cells; host or cells: JY cells (A11); RPMI 8866 cells (A12)", "conditions": "RPMI 8866 cells, α4β7, ligand MadCAM-1", "experimental": "as §1, §2"}, "α6β1": {"target": "T5, α6β1 (Homo sapiens, UniProt P05556+P23229)", "T5 construct": "expressed in transfected cells; host or cells: K562 transfected with α6", "T5 sequence (P23229 24-938 limits assumed)": "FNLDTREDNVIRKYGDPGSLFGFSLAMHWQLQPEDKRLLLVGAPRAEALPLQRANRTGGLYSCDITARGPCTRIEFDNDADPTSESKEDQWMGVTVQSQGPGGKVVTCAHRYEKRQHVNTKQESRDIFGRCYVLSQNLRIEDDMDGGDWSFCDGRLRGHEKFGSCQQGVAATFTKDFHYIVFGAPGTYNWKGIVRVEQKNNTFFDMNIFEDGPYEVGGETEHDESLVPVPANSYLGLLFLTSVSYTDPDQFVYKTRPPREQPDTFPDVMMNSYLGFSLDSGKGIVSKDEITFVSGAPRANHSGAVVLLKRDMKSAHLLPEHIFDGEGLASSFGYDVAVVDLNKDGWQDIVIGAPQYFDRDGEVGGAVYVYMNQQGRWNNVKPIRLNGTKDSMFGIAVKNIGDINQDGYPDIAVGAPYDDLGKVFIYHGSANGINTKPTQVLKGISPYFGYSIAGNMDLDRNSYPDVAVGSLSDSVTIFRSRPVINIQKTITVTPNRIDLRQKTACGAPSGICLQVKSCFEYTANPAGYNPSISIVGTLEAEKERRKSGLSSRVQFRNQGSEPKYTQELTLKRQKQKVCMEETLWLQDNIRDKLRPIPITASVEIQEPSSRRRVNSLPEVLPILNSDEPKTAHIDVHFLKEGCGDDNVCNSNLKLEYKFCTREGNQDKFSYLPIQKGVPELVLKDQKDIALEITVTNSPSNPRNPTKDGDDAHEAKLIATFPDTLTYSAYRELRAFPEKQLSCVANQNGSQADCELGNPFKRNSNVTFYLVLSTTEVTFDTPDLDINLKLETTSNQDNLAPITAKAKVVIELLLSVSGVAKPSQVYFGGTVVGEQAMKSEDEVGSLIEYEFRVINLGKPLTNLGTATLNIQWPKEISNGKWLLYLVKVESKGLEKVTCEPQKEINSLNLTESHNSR", "T5 sequence (P23229 942-1130 partner limits assumed)": "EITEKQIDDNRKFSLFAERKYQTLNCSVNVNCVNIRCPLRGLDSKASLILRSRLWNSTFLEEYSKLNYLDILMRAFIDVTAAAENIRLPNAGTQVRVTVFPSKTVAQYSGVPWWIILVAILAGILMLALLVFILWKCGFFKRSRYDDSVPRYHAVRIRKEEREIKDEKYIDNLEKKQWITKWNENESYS", "T5 sequence (P05556 21-798)": "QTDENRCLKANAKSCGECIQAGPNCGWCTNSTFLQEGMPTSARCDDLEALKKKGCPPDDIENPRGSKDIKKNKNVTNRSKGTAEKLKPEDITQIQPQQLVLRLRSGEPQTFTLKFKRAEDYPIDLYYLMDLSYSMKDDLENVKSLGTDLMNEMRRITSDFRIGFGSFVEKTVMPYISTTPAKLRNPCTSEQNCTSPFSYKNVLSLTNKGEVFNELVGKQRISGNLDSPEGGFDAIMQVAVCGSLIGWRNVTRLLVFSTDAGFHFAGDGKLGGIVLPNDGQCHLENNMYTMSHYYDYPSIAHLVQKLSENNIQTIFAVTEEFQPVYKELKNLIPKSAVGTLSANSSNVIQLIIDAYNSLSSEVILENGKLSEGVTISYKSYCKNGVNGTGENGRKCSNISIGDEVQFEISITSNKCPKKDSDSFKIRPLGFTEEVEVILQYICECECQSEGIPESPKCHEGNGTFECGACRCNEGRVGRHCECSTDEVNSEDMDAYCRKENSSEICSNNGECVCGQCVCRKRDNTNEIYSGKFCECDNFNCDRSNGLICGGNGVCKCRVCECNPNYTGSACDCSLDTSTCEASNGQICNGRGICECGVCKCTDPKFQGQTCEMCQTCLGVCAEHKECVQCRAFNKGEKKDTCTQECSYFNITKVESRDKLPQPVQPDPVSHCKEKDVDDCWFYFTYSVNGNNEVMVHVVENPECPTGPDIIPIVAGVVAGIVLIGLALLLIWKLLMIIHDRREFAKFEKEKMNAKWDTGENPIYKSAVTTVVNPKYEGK", "experiment": "K562 (α6+) cell adhesion to laminin", "assay_type": "cell-based", "experimental": "as §1, §2"}, "α4β1 integrin [5]": {"target": "T6, α4β1 integrin (Homo sapiens, UniProt P05556+P13612)", "T6 construct": "host or cells: Jurkat", "experiment": "HP2/1 antibody binding to Jurkat cells by flow cytometry", "conditions": "60 nM EC3, 10 μg/ml HP 2/1, flow cytometry", "experimental": "(§3) Samples for flow cytometry analysis were prepared as described (Marcinkiewicz et al., Biochem. J. 371:118-124 (1996)), and analyzed in a Coulter Epics flow cytometer (Miami, Fla.).\n(§4) The adhesion study was performed using CMFDA-labeled Jurkat cells in the absence or presence 1 mM GRGDSP or GRGESP, or 10 μg/ml HP 2/1. Competition between EC3 and HP2/1 was also confirmed in cell suspension using FACS analysis. […] The experiment was performed using flow cytometry. Jurkat cells (open bars) or B2-CHO cells (CHO cells with deleted α5 transfected with α4) (closed bars) were incubated with 10 μg/ml HP 2/1 in the absence (a) or presence 60 nM EC3 (b) for 30 min at room temperature. After washing, 10 μg/ml of FITC-conjugated goat anti-mouse IgG was added and samples were incubated for another 30 min at room temperature. The samples were fixed by addition of 1% paraformaldehyde before measurement of fluorescence intensity."}, "α4β7 [6]": {"target": "T4, α4β7", "conditions": "read-out: IC50, direct binding assay; JY cells, α4β7, VCAM-Ig", "experimental": "(§5) The direct binding assay (DBA) with VCAM-11 g alkaline phosphatase conjugate was performed using Jurkat (α4β1 expressing) and JY (α4β7 expressing) cells according to procedure described in Lobb et al, Cell Adhes. Commun. 3:385-398 (1995))."}, "α4β1 [7]": {"target": "T2, α4β1", "conditions": "read-out: IC50, direct binding assay; Jurkat cells, α4β1, VCAM-Ig", "experimental": "as §5"}, "α4 inactive G190A mutant": {"target": "T7, α4 inactive G190A mutant (Homo sapiens, UniProt P13612, G223A)", "T7 construct": "expressed in transfected cells; host or cells: CHO, gift of Dr. Y. Takada", "experiment": "Adhesion of CHO cells transfected with α4 G190A mutant to immobilized EC3", "assay_type": "cell-based", "conditions": "EC3 2 μg/well immobilized; adhesion identical with non transfected cells", "experimental": "as §1\nEC3 (2 μg/well) and HP2/1 (1 μg/well) were immobilized on the 96well plate. The CHO cells were labeled with CMFDA and adhesion was performed as described above. […] Only A2 cells expressing wild type α4 adhered to immobilized HP2/1."}, "α4β1 [8]": {"target": "T8, α4β1 (UniProt G3HZ55+P13612)", "experiment": "α4B2 (CHOα4+/α5−) cell adhesion to immobilized VCAM-1", "assay_type": "cell-based, human", "design": "expressed in transfected cells; host or cells: B2 CHO cells (α5-deficient), gift of Dr. Y. Takada", "conditions": "α4B2 (CHOα4+/α5−) cells, ligand VCAM-1", "experimental": "as §1\nChinese hamster ovary cells transfected with human α4 integrin were provided by Dr. Y. Takada (Scripps Research Institute, La Jolla, Calif.). […] The bound cells were lysed with 0.5% Triton X-100, and fluorescence was measured.\nas §2"}, "α4β1 [9]": {"target": "T8, α4β1", "experiment": "A2 (CHOα4+) cell adhesion to immobilized VCAM-1", "assay_type": "cell-based, human", "design": "expressed in transfected cells; host or cells: CHO (A2 cells, α4+ α5+), gift of Dr. Y. Takada", "conditions": "A2 (CHOα4+) cells, ligand VCAM-1", "experimental": "as §1, §2"}, "α5β1": {"target": "T9, α5β1 (Homo sapiens, UniProt P05556+P08648)", "T9 construct": "host or cells: K562", "T9 sequence (P08648 42-894 limits assumed)": "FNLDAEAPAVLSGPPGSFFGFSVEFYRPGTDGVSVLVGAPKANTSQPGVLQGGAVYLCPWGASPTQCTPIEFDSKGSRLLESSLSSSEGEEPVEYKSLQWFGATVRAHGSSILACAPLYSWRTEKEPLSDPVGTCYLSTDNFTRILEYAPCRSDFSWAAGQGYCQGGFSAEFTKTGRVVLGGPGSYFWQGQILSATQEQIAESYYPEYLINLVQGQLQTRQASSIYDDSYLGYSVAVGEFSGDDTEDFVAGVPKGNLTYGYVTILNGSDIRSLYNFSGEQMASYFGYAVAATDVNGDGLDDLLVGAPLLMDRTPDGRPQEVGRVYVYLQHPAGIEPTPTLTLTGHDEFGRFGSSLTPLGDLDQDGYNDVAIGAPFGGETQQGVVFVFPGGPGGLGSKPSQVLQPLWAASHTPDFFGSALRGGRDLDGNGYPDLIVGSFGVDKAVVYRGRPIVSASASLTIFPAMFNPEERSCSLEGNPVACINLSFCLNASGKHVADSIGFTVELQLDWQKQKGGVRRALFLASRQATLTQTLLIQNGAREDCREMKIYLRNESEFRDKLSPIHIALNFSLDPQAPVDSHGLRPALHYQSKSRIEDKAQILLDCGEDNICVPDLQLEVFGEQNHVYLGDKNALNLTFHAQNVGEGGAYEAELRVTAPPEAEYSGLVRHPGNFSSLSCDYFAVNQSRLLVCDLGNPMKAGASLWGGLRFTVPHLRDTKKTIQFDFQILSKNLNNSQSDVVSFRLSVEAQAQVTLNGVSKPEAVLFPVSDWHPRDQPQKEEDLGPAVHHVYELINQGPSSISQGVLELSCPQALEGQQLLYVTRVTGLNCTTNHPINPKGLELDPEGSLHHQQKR", "T9 sequence (P08648 895-1049 partner limits assumed)": "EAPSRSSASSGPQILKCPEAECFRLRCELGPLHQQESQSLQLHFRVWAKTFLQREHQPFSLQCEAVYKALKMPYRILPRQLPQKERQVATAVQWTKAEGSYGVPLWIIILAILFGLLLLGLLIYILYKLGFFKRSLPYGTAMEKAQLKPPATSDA", "T9 sequence (P05556 21-798)": "as the sequence (P05556 21-798) above", "experiment": "K562 cell adhesion to immobilized fibronectin", "assay_type": "cell-based", "conditions": "5 μg per sample of protein from fraction", "experimental": "as §1"}, "α4β1 [10]": {"target": "T2, α4β1", "experiment": "Jurkat cell adhesion to immobilized VCAM-1", "assay_type": "cell-based", "design": "host or cells: Jurkat", "experimental": "as §1\nThe cell adhesion assay (as described in Example 1) was used to study the inhibitory effect of the eluted fractions on Jurkat cell adhesion to immobilized VCAM-1 and on K562 cell adhesion to fibronectin. […]\nas §2"}, "αIIbβ3 [11]": {"target": "T3, αIIbβ3", "experiment": "A5 (CHOαIIbβ3+) cell adhesion to immobilized fibrinogen", "assay_type": "cell-based", "conditions": "A5 (CHOαIIbβ3+) cells, ligand Fg", "experimental": "as §1, §2"}, "α4β1 integrin [12]": {"target": "T10, α4β1 integrin (UniProt G3HZ55+P13612)", "T10 construct": "expressed in transfected cells; host or cells: B2 CHO cells (α5-deficient), gift of Dr. Y. Takada", "experiment": "HP2/1 antibody binding to α4B2 cells by flow cytometry", "design": "species or system human", "conditions": "60 nM EC3, 10 μg/ml HP 2/1, flow cytometry", "experimental": "as §3, §4"}},
  "note": "“Also recorded” adds a separate entry of the source. Where two headings read alike, the source gives them in different places.",
  "data": [
    {"molecule": "B1", "values": [
      {"measurement": "Number of Islets, Infiltration Score ++", "setting": "[1]; ++ = ⅓ of the islet infiltrated, of 27 (echistatin) or 29 (EC-3) islets, nine weeks i.p.", "result": 7},
      {"measurement": "Number of Islets, Infiltration Score +++", "setting": "[1]; +++ = ½ or more of the islet infiltrated, of 27 (echistatin) or 29 (EC-3) islets, nine weeks i.p.", "result": 0},
      {"measurement": "Number of Animals without infiltration", "setting": "[1]; NOD mice, i.p. three times per week for nine weeks, echistatin 1 μg/mouse, EC-3 3 μg/mouse, 10 animals per group", "result": 2},
      {"measurement": "effect on lymphocyte infiltration in pancreatic islets of NOD mice (in words)", "setting": "[1]; echistatin 1 μg/mouse, EC-3 3 μg/mouse, i.p. three times per week, nine weeks", "result": "reduced levels of lymphocyte infiltration; also recorded: can block lymphocyte invasion; also recorded: reduced the level of lymphocyte infiltration"},
      {"measurement": "Number of Islets, Infiltration Score −", "setting": "[1]; − = no infiltration, of 27 (echistatin) or 29 (EC-3) islets, nine weeks i.p.", "result": 10},
      {"measurement": "IC50", "setting": "α4β1 and α4β7 integrins; anchorage-dependent and anchorage-independent cells, read-out: concentration of highly potent inhibition of interaction of cells expressing α4β1 with VCAM-1 or CS-1", "result": "20 to 300", "unit": "nM"},
      {"measurement": "IC50", "setting": "α4β1 and α4β7 integrins; read-out: IC50, adhesion of cells expressing α4β1 and α4β7 integrins to VCAM-1 and MadCAM-1", "result": "5 to 300", "unit": "nM"},
      {"measurement": "IC50", "setting": "αvβ3; VNRC3 (CHOαvβ3+) cells, ligand Vn", "result": "> 10000", "unit": "nM"},
      {"measurement": "inhibition of αvβ3-dependent adhesion", "setting": "αvβ3; up to 10 μM", "result": "no inhibition"},
      {"measurement": "IC50", "setting": "α4β1 [2]", "result": 100, "unit": "nM"},
      {"measurement": "IC50", "setting": "αIIbβ3 [3]", "result": 1000, "unit": "nM"},
      {"measurement": "IC50", "setting": "α4β7 [4]", "result": 5, "unit": "nM"},
      {"measurement": "IC50", "setting": "α6β1; K562 (α6+) cells, α6β1, ligand Lm", "result": "> 10000", "unit": "nM"},
      {"measurement": "inhibition of adhesion to laminin of K562 cells transfected with α6", "setting": "α6β1; at concentration 10 μM", "result": "neither echistatin nor EC3 inhibited"},
      {"measurement": "inhibition of HP2/1 binding to Jurkat cells", "setting": "α4β1 integrin [5]", "result": "No inhibitory effect"},
      {"measurement": "IC50", "setting": "α4β7 [6]", "result": 6, "unit": "nM"},
      {"measurement": "IC50", "setting": "α4β1 [7]", "result": 28, "unit": "nM"},
      {"measurement": "interaction of inactive G190A α4 mutant with immobilized EC3", "setting": "α4 inactive G190A mutant", "result": "did not interact"},
      {"measurement": "IC50", "setting": "α4β1 [8]", "result": 30, "unit": "nM"},
      {"measurement": "IC50", "setting": "α4β1 [9]", "result": 30, "unit": "nM"},
      {"measurement": "inhibition of binding of K562 cells to immobilized fibronectin", "setting": "α5β1", "result": "inhibited binding"},
      {"measurement": "inhibitory effect on Jurkat cell binding to immobilized VCAM-1", "setting": "α4β1 [10]; 5 μg per sample of protein from fraction", "result": "significant inhibitory effects"},
      {"measurement": "IC50", "setting": "α4β1 [10]; Jurkat cells, ligand VCAM-1, read-out: IC50, cell adhesion", "result": 25, "unit": "nM"},
      {"measurement": "IC50", "setting": "αIIbβ3 [11]", "result": 500, "unit": "nM"},
      {"measurement": "inhibition of HP2/1 binding to α4B2 cells", "setting": "α4β1 integrin [12]", "result": "inhibition of HP2/1 binding"}
    ]}
  ]
}
